From patent US20240002491A1, “METHODS FOR SELECTING PATIENTS FOR TREATMENT WITH AN NGF ANTAGONIST” (Regeneron Pharmaceuticals, Inc., priority 2022, published 2024)

Tests used:
[1] = test system: adults with moderate-to-severe chronic pain associated with osteoarthritis (OA) of the knee or hip; experiment: FACT OA1 (NCT03161093, R475-OA-1611) Phase 3 trial, WOMAC pain and physical function; format: in vivo, human
Description: (§1) NCT02683239 (R475-PN-1523, or “FACT LTS”), NCT03161093 (R475-OA-1611, or “FACT OA1”), and NCT03304379 (R475-OA-1688, or “FACT OA2”) each were Phase 3 trials evaluating fasinumab in adults with moderate-to-severe chronic pain associated with osteoarthritis (OA) of the knee or hip. All three of these trials enrolled patients with OA of the knee or hip who had inadequate pain relief with acetaminophen and were intolerant to or had inadequate pain relief with opioids, or were unwilling or unable to take opioids. Complete inclusion and exclusion criteria for the trials are described at clinicaltrials.gov/ct2/show/NCT03161093, clinicaltrials.gov/ct2/show/NCT03304379, and clinicaltrials.gov/ct2/show/NCT02683239.
FACT OA1 and FACT OA2 assessed the efficacy of fasinumab in comparison to nonsteroidal anti-inflammatory drugs (NSAIDs; naproxen, diclofenac, or celecoxib) for treatment of OA. FACT OA1 includes results from a total of 1,801 patients randomized to one of four treatment arms: fasinumab 1 mg SC once every 8 weeks (Q8W) (n=304), fasinumab 1 mg SC once every 4 weeks (Q4W) (n=639), naproxen 500 mg twice daily (n=644), or placebo (n=214). In FACT OA2, patients were randomized into one of six treatment groups: fasinumab 1 mg SC once every 4 weeks (Q4W), fasinumab 3 mg SC once every 4 weeks (Q4W), fasinumab 6 mg SC once every 8 weeks (Q8W), celecoxib 200 mg once daily, diclofenac 75 mg twice daily, or placebo. While the FACT OA2 trial was still ongoing, enrollment into the fasinumab 3 mg Q4W and 6 mg Q8W groups was stopped for safety considerations; patients enrolled in those dose regimens discontinued study drug and entered the post-treatment follow-up period.
Fasinumab patients in both trials also reported improvements in their pain and physical function (WOMAC score) compared to those treated with the highest-approved prescription doses of NSAIDS.

[2] = test system: adults with moderate-to-severe chronic pain associated with osteoarthritis (OA) of the knee or hip; experiment: FACT LTS (NCT02683239, R475-PN-1523) efficacy substudy; format: in vivo, human; details: fasinumab 1 mg Q8W and 1 mg Q4W groups
Description: as §1
(§2) The FACT LTS study evaluated the long-term safety and tolerability of fasinumab, including adverse events of special interest such as joint damage (e.g. arthropathies), compared with placebo. A total of 2,411 patients were randomized to one of the following treatment arms: (1) fasinumab 1 mg subcutaneous (SC) every 8 weeks (Q8W); (2) fasinumab 1 mg SC every 4 weeks (Q4W); or (3) matching placebo SC Q4W. This study also included a substudy evaluating the efficacy of fasinumab in these same patient groups (n=215 in fasinumab 1 mg Q8W, n=217 in fasinumab 1 mg Q4W, n=214 in placebo).

alkaline phosphatase [3] = details: DA patients at all doses; by 16 weeks
Description: Three non-overlapping subgroups are shown: patients without AA, patients with DA and patients with non-DA AAs.

alkaline phosphatase [4] = details: cited from earlier work
[5] = test system: patients with OA of the knee and/or hip; experiment: Integrated summary of safety (ISS): JR, AA, DA by number of large joints with OA at baseline; format: in vivo, human
Experimental: To improve risk-benefit for patients, analyses were conducted to identify populations of patients that might be at greater risk for joint-related adverse events. An integrated summary of safety (ISS) analysis was performed using pooled data from the clinical studies R475-PN-1612 (NCT03285646), R475-PN-1227 (NCT02447276), R475-PN-1523 (NCT02683239), R475-OA-1611 (NCT03161093), R475-OA-1688 (NCT03304379), R475-OA-1758 (NCT03691974), and MT-5547-J01 (NCT03245008).
As used in this Example, the term “adjudicated arthropathy” or “AA” is an umbrella term that encompasses the following conditions: rapidly progressive OA type 1 or 2, subchondral insufficiency fractures, and primary osteonecrosis. The term “destructive arthropathy” or “DA” refers to abnormal bone fragmentation, destruction, or fracture over a short period of time, which are observed by X-ray radiography and which are features inconsistent with radiographic findings typically observed in conventional advanced OA. The term “joint replacement” or “JR” refers to joint replacement surgery.
To examine different phenotypes of OA (generalized OA in particular) a subgroup analysis based on the number of large joints (knees, hips, shoulders) with OA at baseline was performed. OA joints were defined as any hip or knee with baseline KL 2 score or above and any shoulder with a score of mild, moderate or severe. Thus, the minimum number of joints with OA was 1 and the maximum number could be 6. Three subgroups were arbitrarily designated 1-2, 3-4, and 5-6 large joints with OA at baseline.
The analyses are based on large numbers of patients: 2103 patients in the placebo group, 1676 patients in the fasinumab 1 mg Q8W group (also referred to herein as “1Q8”), and 3009 patients in the 1 mg Q4W group (also referred to herein as “1Q4”). The percentage of the population in each subgroup was similar across treatment arms; the 1-2 joint subgroup ranged from 55.8 to 59.5% of the entire population, the range for the 3-4 joint subgroup was 33.6 to 37.4%, and the range for in the 5-6 joint subgroup was 6.7 to 7.1%.

[6] = test system: adults with moderate-to-severe chronic pain associated with osteoarthritis (OA) of the knee or hip; experiment: Adjudicated arthropathies across the three fasinumab Phase 3 trials; format: in vivo, human; details: across all three Phase 3 trials
Description: as §1, §2

[7] = FACT OA1, Week 16, fasinumab 1 mg Q4W, naproxen 2 × 500 mg/day
[8] = 1 mg Q4W (1Q4), 1-2 joint subgroup
[9] = 1 mg Q4W (1Q4), 5-6 joint subgroup
[10] = 1 mg Q8W (1Q8), 1-2 joint subgroup
[11] = 1 mg Q8W (1Q8), 5-6 joint subgroup

Fasinumab: fully-human high-affinity monoclonal antibody directed against NGF; HCVR/LCVR SEQ ID NOs: 2/10
WOMAC pain, change from baseline [1, 7]: −39% | WOMAC pain, change from baseline (score, in brackets) [1, 7]: (−2.48) | WOMAC physical function, change from baseline [1, 7]: −39% | WOMAC physical function, change from baseline (score, in brackets) [1, 7]: (−2.41) | WOMAC physical function, difference vs. placebo ([1]; FACT OA1, Week 16, fasinumab 1 mg Q4W, p = 0.0001): −0.67 | WOMAC pain, difference vs. placebo ([1]; FACT OA1, Week 16, fasinumab 1 mg Q4W, p = 0.0003): −0.66 | WOMAC physical function, difference vs. naproxen ([1]; FACT OA1, Week 16, fasinumab 1 mg/month vs naproxen 2 × 500 mg/day, nominal p = 0.0006): −0.41 | WOMAC pain, difference vs. naproxen ([1]; FACT OA1, Week 16, fasinumab 1 mg/month vs naproxen 2 × 500 mg/day, nominal p = 0.0050): −0.35 | co-primary endpoints: pain and physical function compared to placebo ([1]; FACT OA1, fasinumab 1 mg Q4W, p<0.01 for all endpoints): significantly reduced pain and improved physical function compared to placebo | co-primary endpoints: pain and physical function (WOMAC score) compared to placebo [2]: significantly reduced pain and improved physical function (WOMAC score) compared to placebo | mean change from baseline in alkaline phosphatase (alkaline phosphatase [3]): 20 U/L | mean increase in alkaline phosphatase following initiation of therapy (alkaline phosphatase [4]; depending upon dose): 5 to 10 U/L | time of peak of the mean increase in alkaline phosphatase (alkaline phosphatase [4]; following initiation of therapy): approximately 16 weeks | median time for detection of DA ([5]; 1 mg Q4W): 343.5 days | difference in all AA from placebo ([5]; 1 mg Q4W (1Q4)): 5.7% | JR rate, difference from placebo [5, 8]: 1.3% | RPOA-1 rate [5, 8]: 5.8% | RPOA-1 rate, difference versus placebo [5, 8]: 4.1% | percentage of patients who developed adjudicated arthropathy (AA) [5, 8]: 7.7% | percentage of patients who underwent joint replacement (JR) [5, 8]: 6.4% | percentage of patients with destructive arthropathy (DA) [5, 8]: 0.3% | percentage of patients who developed adjudicated arthropathy (AA) [5, 9]: 12.2% | percentage of patients who underwent joint replacement (JR) [5, 9]: 14.6% | percentage of patients with destructive arthropathy (DA) [5, 9]: 1.5% | median time for detection of DA ([5]; 1 mg Q8W): 284 days | difference in all AA from placebo ([5]; 1 mg Q8W (1Q8)): 3.7% | JR rate, difference from placebo [5, 10]: 0.8% | RPOA-1 rate [5, 10]: 4.8% | RPOA-1 rate, difference versus placebo [5, 10]: 3.1% | percentage of patients who developed adjudicated arthropathy (AA) [5, 10]: 5.7% | percentage of patients who underwent joint replacement (JR) [5, 10]: 5.9% | percentage of patients with destructive arthropathy (DA) [5, 10]: 0.2% | percentage of patients who developed adjudicated arthropathy (AA) [5, 11]: 10.7% | percentage of patients who underwent joint replacement (JR) [5, 11]: 12.5% | percentage of patients with destructive arthropathy (DA) [5, 11]: 0.9% | median time for detection of DA ([5]; pooled high dose (3 mg Q4W, 6 mg Q4W, 9 mg Q8W, 9 mg Q4W)): 364.5 days | rates of adjudicated arthropathies compared with placebo or NSAIDs [6]: higher rates of arthropathies were adjudicated in patients treated with fasinumab compared with placebo or NSAIDs, which were dose-dependent
